Consider two molecules from patent US20120045391A1 (NATIONAL RESEARCH COUNCIL CANADA, published 2012).

Assay [1] has as its target T1, IGFBP7 (recombinant; preparation not specified) (UniProt Q16270 27-282).
T1 construct: also called immobilized IGFBP7; recombinant IGFBP7
T1 sequence (looked up): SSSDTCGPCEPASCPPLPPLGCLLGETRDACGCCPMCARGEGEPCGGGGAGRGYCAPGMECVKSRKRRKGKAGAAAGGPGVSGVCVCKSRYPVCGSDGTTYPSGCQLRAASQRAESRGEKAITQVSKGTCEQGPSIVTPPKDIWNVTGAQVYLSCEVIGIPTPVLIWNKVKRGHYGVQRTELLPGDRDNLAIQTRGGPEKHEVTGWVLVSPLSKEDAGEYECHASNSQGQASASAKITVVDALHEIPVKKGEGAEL
Nature of the assay: SPR, fit to a steady state model. Background: In SPR one partner is held on a chip, and binding of the other changes the refractive index at the surface.

Assay [2] deals with T2, recombinant protein IGFBP7 from R&D (UniProt Q16270 27-282).
T2 construct: Bought protein immobilized on the Biacore chip; also called recombinant IGFBP7
T2 sequence (looked up): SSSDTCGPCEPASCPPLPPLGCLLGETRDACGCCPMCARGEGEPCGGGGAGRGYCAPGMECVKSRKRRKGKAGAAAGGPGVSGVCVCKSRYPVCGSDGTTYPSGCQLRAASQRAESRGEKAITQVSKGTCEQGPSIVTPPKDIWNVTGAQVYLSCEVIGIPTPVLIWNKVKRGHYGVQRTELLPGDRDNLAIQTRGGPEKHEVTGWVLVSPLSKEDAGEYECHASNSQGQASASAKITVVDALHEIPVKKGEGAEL
Description: SPR, steady state analysis, IGFBP7 as ligand.

The target in assay [3] is T3, recombinant custom-synthesized IGFBP7 (UniProt Q16270 27-282).
T3 construct: also called custom-synthesized recombinant IGFBP7
T3 sequence (looked up): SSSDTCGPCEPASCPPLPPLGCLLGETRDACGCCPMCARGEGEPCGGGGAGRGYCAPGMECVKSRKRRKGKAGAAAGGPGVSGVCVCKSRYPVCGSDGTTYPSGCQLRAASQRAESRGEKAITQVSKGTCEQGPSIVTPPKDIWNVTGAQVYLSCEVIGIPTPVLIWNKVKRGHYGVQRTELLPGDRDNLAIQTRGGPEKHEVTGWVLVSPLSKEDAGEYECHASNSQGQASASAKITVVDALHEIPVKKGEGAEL
Description: SPR, steady state analysis, IGFBP7 as ligand.

Assay [4] deals with T2, recombinant protein IGFBP7 from R&D. Description: SPR, steady state analysis as Scatchard plot, IGFBP7 as ligand.

B1: sdAb clone 4.6-IGFBP7 (VHH)
VHH: QVKLEESGGGSVQPGGSLRLSCAASGRTFSRLAMGWFRQAPGKERELVAGISRSGDGTHYAYSVKGRFTISRDNAANTVELQMNSLKPEDTAVYFCAAARTAFYYYGNDYNYWGQGTQVTVSS
notes: also called IGFBP7-4.6; not shown: c-Myc detection tag and 5xHis purification tag added at the C-terminus by vector pSJF2
For B1, the dissociation constant (Kd) in assay [1] was approximately 1000 nM.

B2: sdAb clone 4.43-IGFBP7 (VHH)
VHH: QVKLEESGGGLVQAGGSLRLSCAASGRTSRRYAMGWFRQAPGKEREFVAGISRSGDGTHYAYSVKGRFTISRDNAANTVELQMNSLKPEDTAVYFCAAARTAFYYYGNDYNYWGQGTQVTVSS
notes: not shown: c-Myc detection tag and 5xHis purification tag added at the C-terminus by vector pSJF2
For the molecule B2, the figures for the Kd in assay [2], in assay [3] and in assay [4] were 40 nM, 30 nM and 50 nM, respectively.

Broadly, the Kd is the free concentration of one partner at which half of the binding sites on the other are occupied at equilibrium, for simple one-to-one binding.
